Earlier results on 1 substance are cited in PMC2868910.

The data set concerns the target thrombomodulin (Homo sapiens) (UniProt P07204).

With thrombin (from UniProt P00734), the dissociation constant (Kd) is 0.5 nM.

Broadly, the Kd is the constant that tells how readily two partners part at equilibrium.
